Test results taken from paper PMC11904528, “Discovery and preclinical development of a SdAb-based CAR-T technology for targeting CD33 in AML” (Molecular Therapy Oncology, 2025).
Like-named read-outs stand apart in the source and are kept apart here.

Experiments:
[1] = biological target: T1, CD33 recombinant ectodomain (His-tagged) (Homo sapiens, UniProt P20138); assay: ELISA; CD33-coated plates; SdAbs titrated and detected with anti-HA HRP; relative affinities (EC50)
T1 construct: CD33 (Siglec-3), human, recombinant ectodomain; The methods name the catalogue number for the immunogen; In SPR it was captured by its His tag on NTA and then cross-linked with EDC/NHS; also called Siglec-3; extracellular domain (ECD) of human CD33; source: bought: SinoBiological #12238-H08H; not shown: His tag, C-terminal, kept

[2] = biological target: T1, CD33 recombinant ectodomain (His-tagged); assay: SPR; Biacore X100, NTA chip; His-tagged CD33 ectodomain captured on nickel, cross-linked with EDC/NHS, nickel stripped with EDTA (388 RU); SdAbs as analytes at 1,000-12.3 nM; single-cycle kinetics; HBS-EP+; 10 uL/min, contact 300 s, dissociation 600 s; 1:1 binding model
[3] = biological target: T1, CD33 recombinant ectodomain (His-tagged)
[4] = biological target: CD33 recombinant ectodomain (His-tagged) (human) (UniProt P20138); assay: ELISA; CD33-coated plates; SdAbs titrated and detected with anti-HA HRP; relative affinities (EC50)
[5] = biological target: T2, Biotinylated CD33 (bio-CD33) (Homo sapiens, UniProt P20138, biotin); assay: BLI; Octet N1, streptavidin SAX2 sensors; bio-CD33 immobilised at 100 nM; in-tandem epitope binning: first antibody 400 nM, then a mixture of 400 nM first and 200 nM second antibody; PBS; conditions: both partners purified
T2 construct: CD33 (Siglec-3), biotinylated

[6] = biological target: CD33 recombinant ectodomain (His-tagged) (human) (UniProt P20138); assay: SPR; Biacore X100, NTA chip; His-tagged CD33 ectodomain captured on nickel, cross-linked with EDC/NHS, nickel stripped with EDTA (388 RU); SdAbs as analytes at 1,000-12.3 nM; single-cycle kinetics; HBS-EP+; 10 uL/min, contact 300 s, dissociation 600 s; 1:1 binding model

T1 sequence (P20138 18-259): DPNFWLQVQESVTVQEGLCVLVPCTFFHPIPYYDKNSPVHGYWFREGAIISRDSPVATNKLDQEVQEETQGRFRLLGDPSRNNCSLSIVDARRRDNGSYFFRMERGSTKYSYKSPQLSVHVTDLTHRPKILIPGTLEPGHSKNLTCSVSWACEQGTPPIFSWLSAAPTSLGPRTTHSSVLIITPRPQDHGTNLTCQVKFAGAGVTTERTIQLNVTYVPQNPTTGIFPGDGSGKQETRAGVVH
Chain of CD33 recombinant ectodomain (His-tagged) (human) (P20138 18-259): as above
T2 sequence (P20138 whole entry, looked up, tested part not stated): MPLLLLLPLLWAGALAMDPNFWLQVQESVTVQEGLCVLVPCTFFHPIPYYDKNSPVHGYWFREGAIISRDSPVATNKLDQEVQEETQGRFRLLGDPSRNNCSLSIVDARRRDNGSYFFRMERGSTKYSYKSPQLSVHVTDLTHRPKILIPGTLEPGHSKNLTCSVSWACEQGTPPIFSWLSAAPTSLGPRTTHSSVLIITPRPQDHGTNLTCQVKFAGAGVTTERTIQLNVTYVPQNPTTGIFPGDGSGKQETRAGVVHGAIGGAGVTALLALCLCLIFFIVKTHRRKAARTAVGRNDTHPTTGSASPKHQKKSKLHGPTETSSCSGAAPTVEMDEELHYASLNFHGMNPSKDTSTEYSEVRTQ

Row | Binder | EC50 ([1]; both partners purified) | Kd ([2]; both partners purified) | koff ([2]; both partners purified) | kon ([2]; both partners purified) | also measured
1 | Nb17 (VHH, llama VHH; From a phage display library of a llama immunised with CD33; also called SdAb Nb17; source: E. coli expression strains (pETMod, OmpA periplasmic signal), purified (IMAC, IEC)) VHH: QVQLQESGGGLVQTGGSLRLSCAVSGSTFSDYVIGWFRQAPGKERDFVAAITWSGGSTYYADSVKGRFIISRDNAKNTVYLQMNSLKPEGTAVYYCAALQLKGGSYYYPAPEEYSYWGQGTQVTVSS | 4.05 nM | 4.99 nM | 8.24e-05 s⁻¹ | 16500 M⁻¹ s⁻¹ | 
2 | Nb8 (VHH, llama VHH; From a phage display library of a llama immunised with CD33; also called SdAb Nb8; source: E. coli expression strains (pETMod, OmpA periplasmic signal), purified (IMAC, IEC)) VHH: EVQLVESGGGLVQDGGSLRLSCAASGRTFSSYVMGWFRQAPGKEREFVAAITWSGGSTYYADSVKGRFTISRDNAKNTVYLQMNSLKPEDTAVYYCAAFELGGGSYYYPDPNEYDYWGQGTQVTVSS | 3.99 nM | 14.4 nM | 0.000356 s⁻¹ | 24800 M⁻¹ s⁻¹ | 
3 | Nb16 (VHH) VHH: EVQLVESGGGLVQTGGSLRLSCAASGRTFSPLAMGWFRQAPGREREFVAGITWSGGSLYYGDFVKGRFTISRDAAKNTLYLQMNSLKPEDTAVYYCAARDYSGDSNFQVTRPSEWDHWGQGTQVTVSS |  |  |  |  | Kd [3]: 4.18 nM; EC50 [1]: 1.91 nM; Kd [2]: 4.18 nM; koff [2]: 4.64e-05 s⁻¹; kon [2]: 11100 M⁻¹ s⁻¹
4 | Nb1 (VHH, llama VHH; From a phage display library of a llama immunised with CD33; also called SdAb Nb1; source: E. coli expression strains (pETMod, OmpA periplasmic signal), purified (IMAC, IEC)) VHH: QVQLQESGGGLVQVGGSLRLSCAASGRAFSTDIMAWFRQAPGKEREFVAAIKWNADNTYDTNSVKGRFTISRDNAKNTNYLEVNSLKPEDTAVYYCASGFSSRPYSDSDSRKYIYWGQGTQVTVSS | 6.4 nM | 29.9 nM | 0.0011 s⁻¹ | 36800 M⁻¹ s⁻¹ | 
5 | Nb3 (VHH, llama VHH; From a phage display library of a llama immunised with CD33; also called SdAb Nb3; source: E. coli expression strains (pETMod, OmpA periplasmic signal), purified (IMAC, IEC)) VHH: EVQLVESGGGLVQAGGSLSLSCAASGRTFSSYVMGWFRQAPGKEREFVAALTWSGGSTYYGDSAKGRFTISRDNAKNTVYLQMNSLKPEDTADYYCAAAALEGGAYHIATMSTYNYWGQGTQVTVSS |  |  |  |  | EC50 [4]: 16.7 nM; binding result [5]: binds; Kd [6]: 115 nM; koff [6]: 0.0017 s⁻¹; kon [6]: 14700 M⁻¹ s⁻¹
